One substance from patent US7345026 can be followed below.

The target of assay [1] is HLA-A2.1 molecules on T2 (TAP-, HLA-A2.1+) cells (human). Kind of assay: T2 cells, stabilisation assay, BB7.2 flow cytometry at 0, 2, 4, 6, 8 h. In general terms: Flow cytometry measures light scatter and fluorescence of single cells or particles in a stream.
The target is the same in assay [2]. Kind of assay: T2 cells, peptide binding by surface HLA-A2.1 (BB7.2) flow cytometry; ratio of concentrations reaching 20% of maximal binding.

Some results are limits rather than exact numbers.

Take Tyrosinase 368-376-N epitopic peptide: the DC50 (half-life of peptide-HLA-A2.1 complexes) in assay [1] was more than 8 h. In assay [2], the RA (relative affinity) (ratio to HIV 1 rt.476 reference peptide) was 2.2.
